{"source": "paper PMC8516079", "target": "TGF-β receptors on MFB-F11 cells", "settings": "scale: fold less potent than HEK293T-expressed TGM1", "data": [{"substance": "algal-expressed TGM1 (Heligmosomoides polygyrus TGF-β mimic, mature 5-domain, FLAG-tagged) (ligand)", "values": [{"measurement": "MFB-F11 Smad-responsive reporter cells, secreted alkaline phosphatase (405 nm), log dilutions starting at 100 ng/mL, 24 h; potency against HEK293T-expressed TGM1", "result": 10}]}]}
